The results in this text go back to US20260139001A1.

The target in this assay is SARS-CoV-2 Spike RBD, Wuhan (SARS-CoV-2) (UniProt P0DTC2).

Substance “Ribosomally constructed Wuhan-NS (VHH72 V104UAG construct translated with NBDxK-tRNACUA)” registered a normalized tube fluorescence of 0.58.
